Earlier results on 20 substances are cited in publication PMC12990809.

Among the targets are PCBP1 (Homo sapiens) (UniProt Q15365); IGF2BP3 (Homo sapiens) (UniProt O00425); CELF6 (Homo sapiens) (UniProt Q96J87); CELF5 (Homo sapiens) (UniProt Q8N6W0); KHDRBS1 (Homo sapiens) (UniProt Q07666); FXR1 (Homo sapiens) (UniProt P51114); HNRNPCL1 (Homo sapiens) (UniProt O60812); PABPC5 (Homo sapiens) (UniProt Q96DU9).
Holding throughout (assay): pulldown
Holding throughout (details): 20 nM protein, 1.5 uM RNA pool; 20 mM HEPES pH 7.8, 70 mM KCl, 10 mM NaCl, 10% glycerol, 2 mM DTT, 0.1 ug/uL BSA; 30 min, 4 C (protocol of this paper; not …); cited from earlier work

Data set [1] has as its target T1, exc-7 (Caenorhabditis elegans) (UniProt Q20084).
T1 sequence: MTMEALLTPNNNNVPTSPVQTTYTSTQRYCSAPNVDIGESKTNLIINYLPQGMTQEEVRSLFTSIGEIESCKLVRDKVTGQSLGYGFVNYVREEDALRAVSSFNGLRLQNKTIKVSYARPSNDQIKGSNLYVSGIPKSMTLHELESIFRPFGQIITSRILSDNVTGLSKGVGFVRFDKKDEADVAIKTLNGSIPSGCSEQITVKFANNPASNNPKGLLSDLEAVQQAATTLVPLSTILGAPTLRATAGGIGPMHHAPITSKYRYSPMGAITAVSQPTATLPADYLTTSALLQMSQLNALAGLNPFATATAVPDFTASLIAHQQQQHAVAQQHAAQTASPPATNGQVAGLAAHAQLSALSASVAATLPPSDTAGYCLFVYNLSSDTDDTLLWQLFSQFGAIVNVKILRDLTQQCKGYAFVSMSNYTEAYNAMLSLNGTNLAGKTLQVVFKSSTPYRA

Another data set has as its target T2, DAZAP1 (Homo sapiens) (UniProt Q96EP5).
T2 sequence: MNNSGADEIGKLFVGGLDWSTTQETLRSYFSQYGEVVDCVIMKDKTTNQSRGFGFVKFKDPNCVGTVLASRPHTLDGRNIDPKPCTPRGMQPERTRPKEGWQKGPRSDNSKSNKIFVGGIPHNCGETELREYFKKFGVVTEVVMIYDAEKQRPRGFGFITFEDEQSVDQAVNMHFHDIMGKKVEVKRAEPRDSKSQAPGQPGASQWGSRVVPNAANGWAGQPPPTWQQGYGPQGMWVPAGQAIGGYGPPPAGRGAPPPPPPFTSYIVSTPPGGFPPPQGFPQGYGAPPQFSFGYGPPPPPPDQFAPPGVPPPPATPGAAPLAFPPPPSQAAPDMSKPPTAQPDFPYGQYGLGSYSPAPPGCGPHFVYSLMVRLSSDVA

Another data set addresses T3, HNRNPH2 (Homo sapiens) (UniProt P55795).
T3 sequence: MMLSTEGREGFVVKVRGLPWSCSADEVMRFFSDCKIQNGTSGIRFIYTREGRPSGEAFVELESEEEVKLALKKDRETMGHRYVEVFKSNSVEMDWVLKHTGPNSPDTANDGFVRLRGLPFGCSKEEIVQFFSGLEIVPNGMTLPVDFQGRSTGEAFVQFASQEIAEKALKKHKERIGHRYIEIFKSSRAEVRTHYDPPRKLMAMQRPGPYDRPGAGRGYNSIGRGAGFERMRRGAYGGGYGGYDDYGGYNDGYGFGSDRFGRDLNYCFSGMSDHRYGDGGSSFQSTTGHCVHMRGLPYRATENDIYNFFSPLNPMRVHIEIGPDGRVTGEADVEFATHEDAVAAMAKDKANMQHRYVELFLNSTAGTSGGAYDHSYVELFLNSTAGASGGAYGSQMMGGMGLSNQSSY

For data set [2], the target named is T4, sup-12 (Caenorhabditis elegans) (UniProt O45189).
T4 sequence: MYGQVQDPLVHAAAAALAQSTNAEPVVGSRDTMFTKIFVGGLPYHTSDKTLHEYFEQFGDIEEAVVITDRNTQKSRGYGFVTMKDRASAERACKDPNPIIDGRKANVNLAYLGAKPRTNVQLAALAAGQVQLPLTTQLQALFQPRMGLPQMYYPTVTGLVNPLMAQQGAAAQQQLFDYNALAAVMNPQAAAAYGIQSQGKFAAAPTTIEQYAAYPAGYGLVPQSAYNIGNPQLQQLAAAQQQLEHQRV

In another data set the target is T5, RBM24 (Homo sapiens) (UniProt Q9BX46).
T5 sequence: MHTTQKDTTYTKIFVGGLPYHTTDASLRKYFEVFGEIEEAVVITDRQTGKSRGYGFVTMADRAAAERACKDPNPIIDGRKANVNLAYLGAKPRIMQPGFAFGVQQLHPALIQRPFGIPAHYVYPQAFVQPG

Data set [3] concerns the target T6, etr-1 (Caenorhabditis elegans) (UniProt A8DYS0).
T6 sequence: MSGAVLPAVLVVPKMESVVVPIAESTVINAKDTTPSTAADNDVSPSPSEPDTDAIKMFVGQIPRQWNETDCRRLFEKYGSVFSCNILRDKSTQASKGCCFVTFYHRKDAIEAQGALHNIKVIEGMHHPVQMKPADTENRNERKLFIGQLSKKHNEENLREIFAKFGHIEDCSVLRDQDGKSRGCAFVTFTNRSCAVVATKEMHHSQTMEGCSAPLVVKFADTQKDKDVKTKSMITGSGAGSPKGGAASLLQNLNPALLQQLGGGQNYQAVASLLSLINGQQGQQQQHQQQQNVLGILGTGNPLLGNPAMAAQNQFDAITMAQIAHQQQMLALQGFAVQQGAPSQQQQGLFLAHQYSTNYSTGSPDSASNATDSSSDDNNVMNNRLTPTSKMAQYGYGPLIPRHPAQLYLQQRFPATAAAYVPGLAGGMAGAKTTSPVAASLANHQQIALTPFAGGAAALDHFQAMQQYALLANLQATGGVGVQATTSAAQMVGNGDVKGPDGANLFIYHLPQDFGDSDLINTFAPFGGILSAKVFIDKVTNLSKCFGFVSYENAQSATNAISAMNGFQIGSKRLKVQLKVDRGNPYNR

In data set [4] the target is T7, sup-26 (Caenorhabditis elegans) (UniProt D5MCR3).
T7 sequence: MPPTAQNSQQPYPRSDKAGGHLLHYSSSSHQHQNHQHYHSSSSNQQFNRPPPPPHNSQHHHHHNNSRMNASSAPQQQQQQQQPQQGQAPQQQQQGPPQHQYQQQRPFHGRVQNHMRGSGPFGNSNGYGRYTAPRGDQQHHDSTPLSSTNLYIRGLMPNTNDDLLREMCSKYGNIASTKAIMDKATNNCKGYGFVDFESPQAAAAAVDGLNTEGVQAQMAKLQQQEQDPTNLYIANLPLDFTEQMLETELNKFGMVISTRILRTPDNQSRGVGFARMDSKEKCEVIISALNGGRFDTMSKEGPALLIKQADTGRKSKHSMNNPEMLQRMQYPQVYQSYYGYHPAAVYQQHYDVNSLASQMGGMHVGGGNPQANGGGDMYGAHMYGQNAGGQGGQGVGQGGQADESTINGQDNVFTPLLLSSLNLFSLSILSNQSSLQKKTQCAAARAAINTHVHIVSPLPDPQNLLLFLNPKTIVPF

The target of the next data set is T8, A2BP1 (Homo sapiens) (UniProt Q9NWB1).
T8 sequence: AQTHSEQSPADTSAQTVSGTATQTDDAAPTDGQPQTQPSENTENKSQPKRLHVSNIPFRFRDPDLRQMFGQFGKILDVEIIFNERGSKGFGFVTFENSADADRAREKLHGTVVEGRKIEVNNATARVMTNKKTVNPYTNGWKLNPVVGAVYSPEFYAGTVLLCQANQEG

A further data set addresses T9, KHDRBS2 (Homo sapiens) (UniProt Q5VWX1).
T9 sequence: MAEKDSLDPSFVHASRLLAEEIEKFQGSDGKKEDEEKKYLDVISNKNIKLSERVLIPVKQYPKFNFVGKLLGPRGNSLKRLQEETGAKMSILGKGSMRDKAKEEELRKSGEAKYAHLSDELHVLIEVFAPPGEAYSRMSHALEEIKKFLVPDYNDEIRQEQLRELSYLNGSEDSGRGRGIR

The target of another data set is T10, HNRNPLL (Homo sapiens) (UniProt Q8WVV9).
T10 sequence: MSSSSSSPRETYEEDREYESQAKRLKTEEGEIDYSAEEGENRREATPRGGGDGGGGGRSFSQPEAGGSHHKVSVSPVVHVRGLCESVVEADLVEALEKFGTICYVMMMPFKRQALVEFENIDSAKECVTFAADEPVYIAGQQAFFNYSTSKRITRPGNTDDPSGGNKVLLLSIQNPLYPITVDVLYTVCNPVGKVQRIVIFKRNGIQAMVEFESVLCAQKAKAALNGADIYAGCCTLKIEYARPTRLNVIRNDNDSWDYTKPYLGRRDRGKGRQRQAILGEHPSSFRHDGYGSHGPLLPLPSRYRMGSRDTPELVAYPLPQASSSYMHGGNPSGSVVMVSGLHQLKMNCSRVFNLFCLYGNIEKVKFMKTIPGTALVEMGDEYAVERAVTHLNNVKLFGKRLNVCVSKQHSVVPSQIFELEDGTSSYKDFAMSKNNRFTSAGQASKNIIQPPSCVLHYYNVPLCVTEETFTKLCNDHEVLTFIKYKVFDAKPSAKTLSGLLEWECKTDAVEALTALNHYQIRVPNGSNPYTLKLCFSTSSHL

The target in data set [5] is T11, asd-1 (Caenorhabditis elegans) (UniProt A1BPT6).
T11 sequence: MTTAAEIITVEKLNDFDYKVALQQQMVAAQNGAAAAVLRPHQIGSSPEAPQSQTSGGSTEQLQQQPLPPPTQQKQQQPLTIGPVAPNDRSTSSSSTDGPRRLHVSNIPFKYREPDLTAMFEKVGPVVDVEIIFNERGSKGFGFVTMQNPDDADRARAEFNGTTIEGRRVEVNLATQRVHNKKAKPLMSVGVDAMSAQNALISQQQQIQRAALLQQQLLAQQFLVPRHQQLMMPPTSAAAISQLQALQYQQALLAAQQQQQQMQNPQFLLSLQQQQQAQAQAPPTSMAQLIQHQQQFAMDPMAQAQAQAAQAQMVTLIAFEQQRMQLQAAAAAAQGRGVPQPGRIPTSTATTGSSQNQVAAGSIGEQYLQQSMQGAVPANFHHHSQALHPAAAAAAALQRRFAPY

Data set [6] has as its target T12, mec-8 (Caenorhabditis elegans) (UniProt G5ECJ4).
T12 sequence: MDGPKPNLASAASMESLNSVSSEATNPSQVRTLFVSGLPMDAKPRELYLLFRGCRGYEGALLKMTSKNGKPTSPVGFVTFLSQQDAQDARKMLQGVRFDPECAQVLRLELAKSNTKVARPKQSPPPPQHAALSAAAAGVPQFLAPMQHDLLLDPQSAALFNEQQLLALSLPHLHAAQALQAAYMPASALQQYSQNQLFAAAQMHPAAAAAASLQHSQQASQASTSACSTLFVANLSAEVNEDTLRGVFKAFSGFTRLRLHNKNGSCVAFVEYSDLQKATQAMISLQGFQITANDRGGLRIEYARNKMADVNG

Sequence of KHDRBS1 (Homo sapiens) (Q07666 107-291): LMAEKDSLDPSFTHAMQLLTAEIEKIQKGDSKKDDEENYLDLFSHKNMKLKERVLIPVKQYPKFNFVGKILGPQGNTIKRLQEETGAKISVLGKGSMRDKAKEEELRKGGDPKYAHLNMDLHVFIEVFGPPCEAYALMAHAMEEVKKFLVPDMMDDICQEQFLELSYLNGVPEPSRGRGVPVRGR
Sequence of IGF2BP3 (Homo sapiens) (O00425 whole entry): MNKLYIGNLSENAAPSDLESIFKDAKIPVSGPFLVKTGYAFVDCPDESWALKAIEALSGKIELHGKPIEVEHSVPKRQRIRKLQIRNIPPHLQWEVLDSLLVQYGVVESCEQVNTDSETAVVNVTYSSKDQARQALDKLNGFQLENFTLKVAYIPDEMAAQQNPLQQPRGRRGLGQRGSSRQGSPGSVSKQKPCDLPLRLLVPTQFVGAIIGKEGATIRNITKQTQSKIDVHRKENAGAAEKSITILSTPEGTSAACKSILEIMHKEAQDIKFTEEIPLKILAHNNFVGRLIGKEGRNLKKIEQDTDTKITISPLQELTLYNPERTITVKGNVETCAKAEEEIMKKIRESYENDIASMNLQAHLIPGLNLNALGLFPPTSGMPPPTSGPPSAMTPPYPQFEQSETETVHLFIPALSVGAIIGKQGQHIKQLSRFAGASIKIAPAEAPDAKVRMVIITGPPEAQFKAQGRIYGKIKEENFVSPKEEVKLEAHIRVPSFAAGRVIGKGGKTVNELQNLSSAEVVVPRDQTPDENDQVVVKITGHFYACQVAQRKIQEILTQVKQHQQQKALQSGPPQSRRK
Sequence of PCBP1 (Homo sapiens) (Q15365 whole entry): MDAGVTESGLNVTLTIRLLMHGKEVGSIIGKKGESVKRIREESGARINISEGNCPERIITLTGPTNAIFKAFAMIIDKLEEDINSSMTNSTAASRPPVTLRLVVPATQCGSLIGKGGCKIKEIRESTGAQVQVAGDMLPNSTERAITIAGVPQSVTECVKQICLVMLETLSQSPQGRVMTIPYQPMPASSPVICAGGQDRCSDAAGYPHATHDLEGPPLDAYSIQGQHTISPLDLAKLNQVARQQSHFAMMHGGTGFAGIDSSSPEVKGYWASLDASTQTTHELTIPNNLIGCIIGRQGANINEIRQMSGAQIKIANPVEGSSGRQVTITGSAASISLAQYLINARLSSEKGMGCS
Sequence of PABPC5 (Homo sapiens) (Q96DU9 whole entry): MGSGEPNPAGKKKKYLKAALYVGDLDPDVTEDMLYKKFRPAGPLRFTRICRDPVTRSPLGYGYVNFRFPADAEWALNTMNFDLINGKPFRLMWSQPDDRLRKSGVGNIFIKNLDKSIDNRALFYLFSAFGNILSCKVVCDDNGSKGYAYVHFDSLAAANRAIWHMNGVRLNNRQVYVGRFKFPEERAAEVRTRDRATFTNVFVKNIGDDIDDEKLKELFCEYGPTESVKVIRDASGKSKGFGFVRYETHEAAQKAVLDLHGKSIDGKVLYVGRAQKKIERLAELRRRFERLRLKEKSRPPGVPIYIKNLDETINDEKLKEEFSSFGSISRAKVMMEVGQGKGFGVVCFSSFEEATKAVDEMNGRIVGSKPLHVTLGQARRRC
Sequence of CELF5 (Homo sapiens) (Q8N6W0 whole entry): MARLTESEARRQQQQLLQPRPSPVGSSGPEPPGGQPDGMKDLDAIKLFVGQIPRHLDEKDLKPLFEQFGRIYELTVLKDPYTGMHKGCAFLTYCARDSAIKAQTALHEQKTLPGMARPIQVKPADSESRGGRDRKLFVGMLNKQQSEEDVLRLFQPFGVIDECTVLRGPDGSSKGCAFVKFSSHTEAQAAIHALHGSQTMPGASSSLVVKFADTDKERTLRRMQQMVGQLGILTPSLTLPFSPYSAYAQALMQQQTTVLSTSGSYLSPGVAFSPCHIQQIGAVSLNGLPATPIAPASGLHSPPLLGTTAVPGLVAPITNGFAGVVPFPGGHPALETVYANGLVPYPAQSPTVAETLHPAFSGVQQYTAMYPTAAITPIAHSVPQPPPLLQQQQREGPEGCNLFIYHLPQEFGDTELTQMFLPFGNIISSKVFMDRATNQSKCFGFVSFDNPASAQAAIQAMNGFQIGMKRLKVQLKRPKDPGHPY
Sequence of FXR1 (Homo sapiens) (P51114 170-401): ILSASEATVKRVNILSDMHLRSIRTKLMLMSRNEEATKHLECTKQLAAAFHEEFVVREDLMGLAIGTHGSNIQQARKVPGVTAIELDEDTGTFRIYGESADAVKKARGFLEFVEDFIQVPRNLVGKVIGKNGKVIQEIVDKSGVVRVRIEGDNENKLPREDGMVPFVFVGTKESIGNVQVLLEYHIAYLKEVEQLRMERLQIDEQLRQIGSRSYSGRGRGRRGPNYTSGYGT
Sequence of HNRNPCL1 (Homo sapiens) (O60812 1-131): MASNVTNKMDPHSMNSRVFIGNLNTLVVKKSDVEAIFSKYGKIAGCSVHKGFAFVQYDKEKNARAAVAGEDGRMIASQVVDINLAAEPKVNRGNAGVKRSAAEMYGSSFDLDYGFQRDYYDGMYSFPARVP
Sequence of CELF6 (Homo sapiens) (Q96J87 whole entry): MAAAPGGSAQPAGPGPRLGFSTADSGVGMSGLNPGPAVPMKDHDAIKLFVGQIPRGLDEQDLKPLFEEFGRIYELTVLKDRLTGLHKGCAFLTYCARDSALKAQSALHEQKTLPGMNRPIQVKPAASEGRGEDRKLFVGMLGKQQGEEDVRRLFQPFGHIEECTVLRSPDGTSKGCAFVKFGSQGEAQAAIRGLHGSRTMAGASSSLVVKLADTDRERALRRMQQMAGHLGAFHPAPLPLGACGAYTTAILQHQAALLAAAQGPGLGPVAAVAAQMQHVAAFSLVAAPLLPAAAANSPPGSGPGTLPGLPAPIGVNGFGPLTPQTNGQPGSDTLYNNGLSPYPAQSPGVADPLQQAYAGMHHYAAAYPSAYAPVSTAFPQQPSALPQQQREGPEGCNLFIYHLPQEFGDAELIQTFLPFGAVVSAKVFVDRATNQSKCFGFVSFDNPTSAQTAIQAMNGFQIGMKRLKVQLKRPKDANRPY

On to UUAAGUU [RNAcompete motif RNCMPT00014], for which, in [1], the binding signal (z-score (mean of top ten 7-mers)) was 13.7. Take UAGGUAG [RNAcompete motif RNCMPT00013]: the binding signal (z-score (mean of top ten 7-mers)) in the data set with DAZAP1 (Homo sapiens) was 7.92. In the case of GGGAGGG [RNAcompete motif RNCMPT00160], the binding signal (z-score (mean of top ten 7-mers)) with HNRNPH2 (Homo sapiens) is 16.8. With UGUGUG [RNAcompete motif RNCMPT00416], the binding signal (z-score (mean of top ten 7-mers)) in [2] was 10.8. Consider CCNANCC [RNAcompete motif RNCMPT00186], for which the binding signal (z-score (mean of top ten 7-mers)) with PCBP1 (Homo sapiens) was 6.42. GUGUGA [RNAcompete motif RNCMPT00184]: in the data set with RBM24 (Homo sapiens), the binding signal (z-score (mean of top ten 7-mers)) is 10.6. GUGUGUU [RNAcompete motif RNCMPT00183]: the binding signal (z-score (mean of top ten 7-mers)) in data set [3] is 8.98. For the substance UAUAUA [RNAcompete motif RNCMPT00182], the binding signal (z-score (mean of top ten 7-mers)) in [4] was 6.85. Regarding AACAA [RNAcompete motif RNCMPT00172], the binding signal (z-score (mean of top ten 7-mers)) with IGF2BP3 (Homo sapiens) is 6.02. UGUGGUG [RNAcompete motif RNCMPT00187]: the binding signal (z-score (mean of top ten 7-mers)) in the data set with CELF6 (Homo sapiens) is 7.27. In the case of GUGUGUG [RNAcompete motif RNCMPT00166], in the data set with CELF5 (Homo sapiens), the binding signal (z-score (mean of top ten 7-mers)) is 9.48. Turning to UGCAUG [RNAcompete motif RNCMPT00168], the binding signal (z-score (mean of top ten 7-mers)) with A2BP1 (Homo sapiens) is 23.3.

Turning to AUAAA [RNAcompete motif RNCMPT00185], in the data set with KHDRBS2 (Homo sapiens), the binding signal (z-score (mean of top ten 7-mers)) was 8.2. As to AUAAAAG [RNAcompete motif RNCMPT00169], the binding signal (z-score (mean of top ten 7-mers)) in the data set with KHDRBS1 (Homo sapiens) was 9.86. As for AAUGACAA [RNAcompete motif RNCMPT00161], in the data set with FXR1 (Homo sapiens), the binding signal (z-score (mean of top ten 7-mers)) is 6.01.

For UUUUUU [RNAcompete motif RNCMPT00167], the binding signal (z-score (mean of top ten 7-mers)) with HNRNPCL1 (Homo sapiens) was 18.4. On to AGAAANU [RNAcompete motif RNCMPT00171], for which the binding signal (z-score (mean of top ten 7-mers)) with PABPC5 (Homo sapiens) is 7.11. Take ACANACA [RNAcompete motif RNCMPT00178]: the binding signal (z-score (mean of top ten 7-mers)) with HNRNPLL (Homo sapiens) is 9.56. Regarding UGCAUGA [RNAcompete motif RNCMPT00180], the binding signal (z-score (mean of top ten 7-mers)) in data set [5] was 20.3. Consider AGCACA [RNAcompete motif RNCMPT00181], for which the binding signal (z-score (mean of top ten 7-mers)) in data set [6] was 8.36.
